In PMC8754650, “Structural basis of DNA methylation-dependent site selectivity of the Epstein–Barr virus lytic switch protein ZEBRA/Zta/BZLF1” one finds binding result and Kd data, which are given here for five molecules.

Data set [1] addresses T1, Strep/FLAG:ZEBRA (Epstein-Barr virus, UniProt P03206 149-245). Description: EMSA; intermediate, similar to hemi-methylated sites; FP: PBS (137 mM NaCl, 2.7 mM KCl, 10 mM Na2HPO4, 1.8 mM KH2PO4) pH 7.4, 20 C, 10 nM duplex, 28 ng/ul herring testes DNA competitor; EMSA per cited ref with competitor DNA. To be noted: protein: recombinant; tags: StrepII/FLAG; chain copies: 2; 5' overhang 2 nt each end. On the technique in general: A gel shift assay detects complexes by their altered migration in electrophoresis.

Data set [2] has as its target T1, Strep/FLAG:ZEBRA. Description: EMSA; tightest; FP: PBS (137 mM NaCl, 2.7 mM KCl, 10 mM Na2HPO4, 1.8 mM KH2PO4) pH 7.4, 20 C, 10 nM duplex, 28 ng/ul herring testes DNA competitor; EMSA per cited ref with competitor DNA. To be noted: protein: recombinant; tags: StrepII/FLAG; chain copies: 2; 5' overhang 2 nt each end.
Data set [3] has as its target T1, Strep/FLAG:ZEBRA. Description: EMSA; between ZRE2 and meZRE2; slightly stronger than hemi C-2'; FP: PBS (137 mM NaCl, 2.7 mM KCl, 10 mM Na2HPO4, 1.8 mM KH2PO4) pH 7.4, 20 C, 10 nM duplex, 28 ng/ul herring testes DNA competitor; EMSA per cited ref with competitor DNA. To be noted: protein: recombinant; tags: StrepII/FLAG; chain copies: 2; 5' overhang 2 nt each end.

Data set [4] deals with GCN4 DBD WT (Saccharomyces cerevisiae, UniProt P03069 228-281). Description: FP; apparent; FP: PBS (137 mM NaCl, 2.7 mM KCl, 10 mM Na2HPO4, 1.8 mM KH2PO4) pH 7.4, 20 C, 10 nM duplex, 28 ng/ul herring testes DNA competitor; EMSA per cited ref with competitor DNA. Conditions: protein: recombinant; tags: MBP; chain copies: 2; label: rhodamine 5' of strand 1; 5' overhang 1 nt each end.

The target in data set [5] is ZEBRA DBD WT (Epstein-Barr virus, UniProt P03206 175-236). Description: FP; apparent, Hill n=2; FP: PBS (137 mM NaCl, 2.7 mM KCl, 10 mM Na2HPO4, 1.8 mM KH2PO4) pH 7.4, 20 C, 10 nM duplex, 28 ng/ul herring testes DNA competitor; EMSA per cited ref with competitor DNA. Conditions: protein: recombinant; tags: MBP; chain copies: 2; label: rhodamine 5' of strand 1; 5' overhang 1 nt each end.

For data set [6], the target named is T1, Strep/FLAG:ZEBRA. Description: EMSA; between ZRE2 and meZRE2; FP: PBS (137 mM NaCl, 2.7 mM KCl, 10 mM Na2HPO4, 1.8 mM KH2PO4) pH 7.4, 20 C, 10 nM duplex, 28 ng/ul herring testes DNA competitor; EMSA per cited ref with competitor DNA. To be noted: protein: recombinant; tags: StrepII/FLAG; chain copies: 2; 5' overhang 2 nt each end.

T1 sequence (P03206 149-245): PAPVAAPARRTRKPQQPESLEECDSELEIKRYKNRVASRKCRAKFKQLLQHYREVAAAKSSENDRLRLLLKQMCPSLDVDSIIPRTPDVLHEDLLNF
ZEBRA DBD WT, sequence (P03206 175-236): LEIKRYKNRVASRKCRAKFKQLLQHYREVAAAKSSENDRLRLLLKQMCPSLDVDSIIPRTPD
GCN4 DBD WT, sequence (P03069 228-281): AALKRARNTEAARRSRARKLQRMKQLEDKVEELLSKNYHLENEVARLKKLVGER

B1: oriLyt ZRE5 (EMSA) (dsDNA)
DNA 1: ATAGCTTATGTGCAATTTTATC
DNA 2: ATGATAAAATTGCACATAAGCT
Consider B1, for which the binding result in data set [1] is on record as “binds”.

B2: meZRE2 (EMSA) (dsDNA)
DNA 1: ATAGCTTATGAGCGATTTTATC
DNA 2: ATGATAAAATCGCTCATAAGCT
modifications: 5mC at position 13 of strand 1 and 11 of strand 2
On to B2, for which the binding result in data set [2] is on record as “binds”.

B3: hemi-me C1 ZRE2 (EMSA) (dsDNA)
DNA 1: ATAGCTTATGAGCGATTTTATC
DNA 2: ATGATAAAATCGCTCATAAGCT
modifications: 5mC at position 13 of strand 1
As for B3, the binding result in data set [3] is “binds”.

B4: AP-1 (FP) (dsDNA)
DNA 1: AGCTTATGAGTCATTTTAT
DNA 2: AATAAAATGACTCATAAGC
For the molecule B4, the results for the Kd in data set [4] and in data set [5] were 77.9 ± 8.8 nM and 271 ± 25 nM, respectively.

B5: hemi-me C-2' ZRE2 (EMSA) (dsDNA)
DNA 1: ATAGCTTATGAGCGATTTTATC
DNA 2: ATGATAAAATCGCTCATAAGCT
modifications: 5mC at position 11 of strand 2
In the case of B5, the binding result in data set [6] is “binds”.
